From US20260234260A1 (EUCURE BEIJING BIOPHARMA, published 2026)
Like-named read-outs stand apart in the source and are kept apart here. Blank lines part the entries; values can stand above or below the binder they belong to.

Assays:
[1] = biological target: T1, human CD40 expressed on Jurkat-Luc-hCD40 reporter cells (human, UniProt P25942 21-277); assay: cell-based or functional assay
[2] = biological target: T1, human CD40 expressed on …; assay: cell-based or functional assay; remark: listed apart in the source
[3] = biological target: T2, neonatal Fc receptor (FcRn); assay: SPR (Biacore), antibody captured, FcRn as analyte
T2 construct: Analyte in Biacore
Experimental: The binding affinity to neonatal Fc receptor (FcRn) was determined by Biacore® systems.

[4] = biological target: T3, human PD-1/PDCD1 protein, His Tag (ACRO Biosystems Cat #PD1-H5221) (human, UniProt Q15116 25-167); assay: SPR (Biacore), antibody captured, His-tagged hPD-1 in solution
T3 construct: Bought protein; also called hPD-1; human PD-1 protein; not shown: His tag

[5] = biological target: human PD-1 expressed on cells (Jurkat-Luc-hPD-1, CHO-K1-hPD1, Jurkat-hPD1) (human, UniProt Q15116 25-288); assay: cell-based or functional assay
[6] = biological target: T1, human CD40 expressed on …; assay: cell-based or functional assay; remark: listed apart in the source
[7] = biological target: T1, human CD40 expressed on …; assay: cell-based or functional assay; remark: listed apart in the source
[8] = biological target: T1, human CD40 expressed on …; assay: cell-based or functional assay; remark: listed apart in the source
[9] = biological target: T1, human CD40 expressed on …; assay: cell-based or functional assay; remark: listed apart in the source
[10] = biological target: T4, human CD40/TNFRSF5 Protein, His Tag (ACRO Biosystems Cat #CD0-H5228) (human, UniProt P25942 21-193); assay: SPR (Biacore), antibody captured, His-tagged hCD40 in solution
T4 construct: Bought protein; also called hCD40; human CD40 protein; not shown: His tag

[11] = biological target: T4, human CD40/TNFRSF5 Protein, His Tag …; assay: SPR (Biacore), hCD40
Experimental: The binding affinity to human […] (hCD40) was determined by Biacore systems.

[12] = biological target: T1, human CD40 expressed on …; assay: cell-based or functional assay; remark: listed apart in the source

T4 sequence (P25942 21-193 limits assumed): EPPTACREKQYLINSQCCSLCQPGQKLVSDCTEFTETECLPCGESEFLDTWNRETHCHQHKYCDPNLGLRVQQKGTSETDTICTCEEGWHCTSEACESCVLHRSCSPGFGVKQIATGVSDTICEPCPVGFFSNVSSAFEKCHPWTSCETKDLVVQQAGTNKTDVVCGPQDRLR
human PD-1 expressed on cells (Jurkat-Luc-hPD-1, CHO-K1-hPD1, Jurkat-hPD1), sequence (Q15116 25-288 limits assumed): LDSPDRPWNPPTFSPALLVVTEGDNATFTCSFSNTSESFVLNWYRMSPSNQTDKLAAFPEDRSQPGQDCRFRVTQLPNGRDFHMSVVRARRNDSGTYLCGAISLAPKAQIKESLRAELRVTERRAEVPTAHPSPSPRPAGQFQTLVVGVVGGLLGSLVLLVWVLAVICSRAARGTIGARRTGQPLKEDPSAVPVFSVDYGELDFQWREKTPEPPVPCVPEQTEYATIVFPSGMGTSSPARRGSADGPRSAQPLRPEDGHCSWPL
T3 sequence (Q15116 25-167 limits assumed): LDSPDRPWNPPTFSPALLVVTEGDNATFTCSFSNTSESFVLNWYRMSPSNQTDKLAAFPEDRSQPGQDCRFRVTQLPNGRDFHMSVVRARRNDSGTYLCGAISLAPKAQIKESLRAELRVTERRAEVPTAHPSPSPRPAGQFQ
T1 sequence (P25942 21-277 limits assumed): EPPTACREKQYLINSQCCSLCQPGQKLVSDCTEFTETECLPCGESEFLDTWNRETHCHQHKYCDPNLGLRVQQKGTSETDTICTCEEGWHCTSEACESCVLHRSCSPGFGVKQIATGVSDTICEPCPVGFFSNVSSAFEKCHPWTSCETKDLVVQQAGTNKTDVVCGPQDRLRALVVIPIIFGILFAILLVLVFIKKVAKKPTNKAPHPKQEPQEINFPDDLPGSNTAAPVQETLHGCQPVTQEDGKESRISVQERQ

EC50 (read off the curve) [1]: ~0.1 µg/mL
B1: Pembrolizumab-Seli-FVHC-IgG4 (bispecific antibody)
heavy: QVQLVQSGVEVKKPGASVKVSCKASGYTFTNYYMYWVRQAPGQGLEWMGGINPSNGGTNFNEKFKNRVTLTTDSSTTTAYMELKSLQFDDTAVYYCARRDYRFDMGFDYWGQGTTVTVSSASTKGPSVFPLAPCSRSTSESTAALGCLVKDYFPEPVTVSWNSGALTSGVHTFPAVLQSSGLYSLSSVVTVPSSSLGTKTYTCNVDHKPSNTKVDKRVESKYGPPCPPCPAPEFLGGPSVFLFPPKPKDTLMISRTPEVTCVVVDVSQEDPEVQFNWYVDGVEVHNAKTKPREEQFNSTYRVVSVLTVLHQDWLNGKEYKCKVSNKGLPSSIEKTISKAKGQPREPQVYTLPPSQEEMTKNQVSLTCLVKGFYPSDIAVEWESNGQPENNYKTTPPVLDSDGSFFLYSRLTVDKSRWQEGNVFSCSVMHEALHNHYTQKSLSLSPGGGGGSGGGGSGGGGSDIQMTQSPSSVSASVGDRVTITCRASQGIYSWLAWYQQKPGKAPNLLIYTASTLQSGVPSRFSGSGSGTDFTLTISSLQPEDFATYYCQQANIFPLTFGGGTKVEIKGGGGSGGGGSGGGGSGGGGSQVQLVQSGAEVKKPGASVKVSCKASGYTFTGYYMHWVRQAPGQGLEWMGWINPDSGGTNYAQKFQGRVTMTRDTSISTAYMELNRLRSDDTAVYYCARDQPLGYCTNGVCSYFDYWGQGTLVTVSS
light: EIVLTQSPATLSLSPGERATLSCRASKGVSTSGYSYLHWYQQKPGQAPRLLIYLASYLESGVPARFSGSGSGTDFTLTISSLEPEDFAVYYCQHSRDLPLTFGGGTKVEIKRTVAAPSVFIFPPSDEQLKSGTASVVCLLNNFYPREAKVQWKVDNALQSGNSQESVTEQDSKDSTYSLSSTLTLSKADYEKHKVYACEVTHQGLSSPVTKSFNRGEC

EC50 (read off the curve) [2]: ~0.2 µg/mL
B3: Pembrolizumab-APX005M-FVHC-IgG4 (bispecific antibody)
heavy: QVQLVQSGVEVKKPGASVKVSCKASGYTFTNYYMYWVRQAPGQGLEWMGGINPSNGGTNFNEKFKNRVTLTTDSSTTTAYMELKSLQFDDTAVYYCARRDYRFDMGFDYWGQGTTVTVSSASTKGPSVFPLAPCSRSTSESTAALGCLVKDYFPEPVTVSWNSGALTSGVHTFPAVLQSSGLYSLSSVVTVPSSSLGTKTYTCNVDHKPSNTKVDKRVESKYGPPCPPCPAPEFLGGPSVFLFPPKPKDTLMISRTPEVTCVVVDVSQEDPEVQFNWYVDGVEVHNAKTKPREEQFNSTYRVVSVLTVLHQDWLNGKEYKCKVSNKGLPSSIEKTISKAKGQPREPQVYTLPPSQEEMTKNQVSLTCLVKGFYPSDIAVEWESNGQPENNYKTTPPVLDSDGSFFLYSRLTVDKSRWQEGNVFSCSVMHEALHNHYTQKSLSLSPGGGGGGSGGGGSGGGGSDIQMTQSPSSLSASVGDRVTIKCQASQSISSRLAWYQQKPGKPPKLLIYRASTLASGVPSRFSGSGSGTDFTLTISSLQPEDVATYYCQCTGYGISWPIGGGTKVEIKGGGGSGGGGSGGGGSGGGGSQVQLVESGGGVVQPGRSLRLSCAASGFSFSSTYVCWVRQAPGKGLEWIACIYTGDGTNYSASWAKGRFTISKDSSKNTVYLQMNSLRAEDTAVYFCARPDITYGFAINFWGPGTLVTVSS
light: EIVLTQSPATLSLSPGERATLSCRASKGVSTSGYSYLHWYQQKPGQAPRLLIYLASYLESGVPARFSGSGSGTDFTLTISSLEPEDFAVYYCQHSRDLPLTFGGGTKVEIKRTVAAPSVFIFPPSDEQLKSGTASVVCLLNNFYPREAKVQWKVDNALQSGNSQESVTEQDSKDSTYSLSSTLTLSKADYEKHKVYACEVTHQGLSSPVTKSFNRGEC

Kd [3]: 2210 nM
Kd [4]: 8.56 nM
koff [4]: 0.00125 s⁻¹
kon [4]: 146000 M⁻¹ s⁻¹
EC50 Value (ug/ml), luminescence of Jurkat-Luc-hPD-1 effector cells co-cultured with CHO-aAPC-hPD-L1 cells [5]: 5.61 µg/mL
B4: anti-PD-1 monoclonal antibody 1A7-H2K3-IgG4 (antibody)
VH: EVQLVESGGGLVQPGGSLRLSCAASGFTFSSYSMSWVRQAPGKRLEWVAHISSGGSSTYYPDTVKGRFTISRDNSKNTLYLQMNSLRAEDTAMYYCTRQFYYGSSFWYFDVWGAGTTVTVSS
light: DNVLTQSPATLSVSPGERATLSCKASQSVDFDGDSYMNWYQQKPGQPPRLLIYAASNLESGIPARFSGSGSGTDFTLTISSVEPEDFATYYCQQSNEDPPTFGGGTKVEIKRTVAAPSVFIFPPSDEQLKSGTASVVCLLNNFYPREAKVQWKVDNALQSGNSQESVTEQDSKDSTYSLSSTLTLSKADYEKHKVYACEVTHQGLSSPVTKSFNRGEC
notes: IgG4; also called PD-1 (1A7-H2K3-IgG4); PD1-1A7-H2K3-IgG4

EC50 Value (ug/ml), luminescence of Jurkat-Luc-hCD40 reporter cells in the presence of Jurkat-hPD1 basal cells [12]: 0.0079 µg/mL
Kd [4]: 8.28 nM
koff [4]: 0.00122 s⁻¹
kon [4]: 148000 M⁻¹ s⁻¹
EC50 Value (ug/ml), luminescence of Jurkat-Luc-hCD40 reporter cells in the presence of CHO-K1-hPD1 basal cells [8]: 0.0108 µg/mL
Kd [10]: 1.3 nM
koff [10]: 0.00034 s⁻¹
kon [10]: 261000 M⁻¹ s⁻¹
EC50 Value (ug/ml), luminescence of Jurkat-Luc-hPD-1 effector cells co-cultured with CHO-aAPC-hPD-L1 cells [5]: 4.36 µg/mL
B8: ScFV-HC-IgG4 (bispecific antibody)
heavy: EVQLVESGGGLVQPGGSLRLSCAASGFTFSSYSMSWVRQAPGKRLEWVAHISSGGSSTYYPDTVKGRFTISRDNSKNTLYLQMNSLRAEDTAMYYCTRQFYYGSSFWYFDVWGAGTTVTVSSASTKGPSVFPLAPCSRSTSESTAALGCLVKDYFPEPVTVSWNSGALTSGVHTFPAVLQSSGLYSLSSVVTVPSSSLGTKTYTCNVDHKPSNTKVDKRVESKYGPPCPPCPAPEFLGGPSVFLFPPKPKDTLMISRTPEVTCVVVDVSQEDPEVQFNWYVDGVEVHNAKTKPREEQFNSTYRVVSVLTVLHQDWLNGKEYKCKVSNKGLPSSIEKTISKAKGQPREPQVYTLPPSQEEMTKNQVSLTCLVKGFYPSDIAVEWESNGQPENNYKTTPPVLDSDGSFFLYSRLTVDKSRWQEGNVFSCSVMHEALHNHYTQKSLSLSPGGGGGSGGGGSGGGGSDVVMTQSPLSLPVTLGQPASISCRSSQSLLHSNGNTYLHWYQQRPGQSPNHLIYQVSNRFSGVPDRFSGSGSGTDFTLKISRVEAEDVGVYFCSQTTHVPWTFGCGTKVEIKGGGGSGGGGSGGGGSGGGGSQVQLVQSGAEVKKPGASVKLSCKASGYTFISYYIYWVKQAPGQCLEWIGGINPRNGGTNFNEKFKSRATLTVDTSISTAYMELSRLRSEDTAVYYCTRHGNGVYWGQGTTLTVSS
light: DNVLTQSPATLSVSPGERATLSCKASQSVDFDGDSYMNWYQQKPGQPPRLLIYAASNLESGIPARFSGSGSGTDFTLTISSVEPEDFATYYCQQSNEDPPTFGGGTKVEIKRTVAAPSVFIFPPSDEQLKSGTASVVCLLNNFYPREAKVQWKVDNALQSGNSQESVTEQDSKDSTYSLSSTLTLSKADYEKHKVYACEVTHQGLSSPVTKSFNRGEC
notes: Anti-CD40 scFv (6A7-H4K2) joined to the C-terminus of each heavy chain of the anti-PD-1 antibody 1A7-H2K3, IgG4

EC50 Value (ug/ml), luminescence of Jurkat-Luc-hCD40 reporter cells in the presence of Jurkat-hPD1 basal cells [12]: 0.0065 µg/mL
B9: ScFV-HC-IgG1-LALA (bispecific antibody)
heavy: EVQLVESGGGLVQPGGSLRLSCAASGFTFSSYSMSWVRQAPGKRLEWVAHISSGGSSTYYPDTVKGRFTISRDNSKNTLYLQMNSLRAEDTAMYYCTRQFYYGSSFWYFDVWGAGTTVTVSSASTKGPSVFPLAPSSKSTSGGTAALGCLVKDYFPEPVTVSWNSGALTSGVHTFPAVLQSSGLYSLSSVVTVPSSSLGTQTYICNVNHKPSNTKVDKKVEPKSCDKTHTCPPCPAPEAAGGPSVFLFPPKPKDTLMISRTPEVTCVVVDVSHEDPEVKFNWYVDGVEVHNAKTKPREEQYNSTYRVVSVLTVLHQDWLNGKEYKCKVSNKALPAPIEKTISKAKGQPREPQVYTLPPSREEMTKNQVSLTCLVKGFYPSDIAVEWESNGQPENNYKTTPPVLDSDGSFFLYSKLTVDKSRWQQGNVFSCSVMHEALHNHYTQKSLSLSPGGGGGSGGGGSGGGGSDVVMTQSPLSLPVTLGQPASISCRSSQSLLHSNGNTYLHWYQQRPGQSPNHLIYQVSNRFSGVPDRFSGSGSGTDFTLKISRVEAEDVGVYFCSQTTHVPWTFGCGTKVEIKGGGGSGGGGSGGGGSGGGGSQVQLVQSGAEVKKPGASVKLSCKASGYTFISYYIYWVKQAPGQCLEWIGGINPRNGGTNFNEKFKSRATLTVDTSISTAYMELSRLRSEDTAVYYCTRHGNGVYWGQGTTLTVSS
light: DNVLTQSPATLSVSPGERATLSCKASQSVDFDGDSYMNWYQQKPGQPPRLLIYAASNLESGIPARFSGSGSGTDFTLTISSVEPEDFATYYCQQSNEDPPTFGGGTKVEIKRTVAAPSVFIFPPSDEQLKSGTASVVCLLNNFYPREAKVQWKVDNALQSGNSQESVTEQDSKDSTYSLSSTLTLSKADYEKHKVYACEVTHQGLSSPVTKSFNRGEC

Continued, binder first:

B2: Pembrolizumab-6A7-HC-IgG1-LALA (bispecific antibody)
heavy: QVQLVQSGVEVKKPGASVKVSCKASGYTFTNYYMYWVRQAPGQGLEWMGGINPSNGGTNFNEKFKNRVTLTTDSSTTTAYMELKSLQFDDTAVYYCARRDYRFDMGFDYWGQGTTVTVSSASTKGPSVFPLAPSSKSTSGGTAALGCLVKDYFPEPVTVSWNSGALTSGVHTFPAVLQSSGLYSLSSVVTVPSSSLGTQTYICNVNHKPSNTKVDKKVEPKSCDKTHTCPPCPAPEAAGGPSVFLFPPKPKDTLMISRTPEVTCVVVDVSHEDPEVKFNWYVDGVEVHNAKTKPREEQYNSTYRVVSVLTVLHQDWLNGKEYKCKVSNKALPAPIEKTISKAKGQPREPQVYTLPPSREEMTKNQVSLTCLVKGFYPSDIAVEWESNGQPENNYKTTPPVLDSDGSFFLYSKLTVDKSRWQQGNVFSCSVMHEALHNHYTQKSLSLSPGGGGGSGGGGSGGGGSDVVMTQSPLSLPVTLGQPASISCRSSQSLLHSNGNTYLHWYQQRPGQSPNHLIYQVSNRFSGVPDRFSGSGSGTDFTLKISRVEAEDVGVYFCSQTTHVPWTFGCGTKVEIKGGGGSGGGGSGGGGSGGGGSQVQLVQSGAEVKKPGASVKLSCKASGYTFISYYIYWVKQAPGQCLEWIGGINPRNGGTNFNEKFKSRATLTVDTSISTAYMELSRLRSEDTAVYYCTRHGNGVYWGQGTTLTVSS
light: EIVLTQSPATLSLSPGERATLSCRASKGVSTSGYSYLHWYQQKPGQAPRLLIYLASYLESGVPARFSGSGSGTDFTLTISSLEPEDFAVYYCQHSRDLPLTFGGGTKVEIKRTVAAPSVFIFPPSDEQLKSGTASVVCLLNNFYPREAKVQWKVDNALQSGNSQESVTEQDSKDSTYSLSSTLTLSKADYEKHKVYACEVTHQGLSSPVTKSFNRGEC
EC50 (read off the curve) [2]: ~0.07 µg/mL

B5: Fab-ScFV-IgG4 (bispecific antibody)
heavy: EVQLVESGGGLVQPGGSLRLSCAASGFTFSSYSMSWVRQAPGKRLEWVAHISSGGSSTYYPDTVKGRFTISRDNSKNTLYLQMNSLRAEDTAMYYCTRQFYYGSSFWYFDVWGAGTTVTVSSASTKGPSVFPLAPCSRSTSESTAALGCLVKDYFPEPVTVSWNSGALTSGVHTFPAVLQSSGLYSLSSVVTVPSSSLGTKTYTCNVDHKPSNTKVDKRVESKYGPPCPPCPAPEFLGGPSVFLFPPKPKDTLMISRTPEVTCVVVDVSQEDPEVQFNWYVDGVEVHNAKTKPREEQFNSTYRVVSVLTVLHQDWLNGKEYKCKVSNKGLPSSIEKTISKAKGQPREPQVYTLPPCQEEMTKNQVSLWCLVKGFYPSDIAVEWESNGQPENNYKTTPPVLDSDGSFFLYSRLTVDKSRWQEGNVFSCSVMHEALHNHYTQKSLSLSLGK
light: DNVLTQSPATLSVSPGERATLSCKASQSVDFDGDSYMNWYQQKPGQPPRLLIYAASNLESGIPARFSGSGSGTDFTLTISSVEPEDFATYYCQQSNEDPPTFGGGTKVEIKRTVAAPSVFIFPPSDEQLKSGTASVVCLLNNFYPREAKVQWKVDNALQSGNSQESVTEQDSKDSTYSLSSTLTLSKADYEKHKVYACEVTHQGLSSPVTKSFNRGEC
chain: QVQLVQSGAEVKKPGASVKLSCKASGYTFISYYIYWVKQAPGQCLEWIGGINPRNGGTNFNEKFKSRATLTVDTSISTAYMELSRLRSEDTAVYYCTRHGNGVYWGQGTTLTVSSASTGGGGSGGGGSGGGGSGGGGSDVVMTQSPLSLPVTLGQPASISCRSSQSLLHSNGNTYLHWYQQRPGQSPNHLIYQVSNRFSGVPDRFSGSGSGTDFTLKISRVEAEDVGVYFCSQTTHVPWTFGCGTKVEIKDKRVESKYGPPCPPCPAPEFLGGPSVFLFPPKPKDTLMISRTPEVTCVVVDVSQEDPEVQFNWYVDGVEVHNAKTKPREEQFNSTYRVVSVLTVLHQDWLNGKEYKCKVSNKGLPSSIEKTISKAKGQPREPQVCTLPPSQEEMTKNQVSLSCAVKGFYPSDIAVEWESNGQPENNYKTTPPVLDSDGSFFLVSRLTVDKSRWQEGNVFSCSVMHEALHNHYTQKSLSLSLGK
notes: Anti-PD-1 arm (1A7-H2K3 heavy and light chain, IgG4 with KIH) and anti-CD40 arm (6A7-H4K2 scFv joined to IgG4 CH2-CH3 with KIH)
EC50 Value (ug/ml), luminescence of Jurkat-Luc-hCD40 reporter cells in the presence of CHO-K1-hFcγRIIB basal cells [6]: 0.0543 µg/mL
Kd [4]: 9.78 nM
koff [4]: 0.00117 s⁻¹
kon [4]: 120000 M⁻¹ s⁻¹
EC50 (read off the curve), luciferase Rlu, Jurkat-Luc-hCD40 reporter cells with CHO-K1-hFcγRIIB basal cells [7]: ~0.05 µg/mL
EC50 Value (ug/ml), luminescence of Jurkat-Luc-hCD40 reporter cells in the presence of CHO-K1-hPD1 basal cells [8]: 0.0103 µg/mL
EC50 (read off the curve), luciferase Rlu, Jurkat-Luc-hCD40 reporter cells with CHO-K1-hPD-1 basal cells [9]: ~0.04 µg/mL
Kd [10]: 1.75 nM
koff [10]: 0.0005 s⁻¹
kon [10]: 285000 M⁻¹ s⁻¹
EC50 Value (ug/ml), luminescence of Jurkat-Luc-hPD-1 effector cells co-cultured with CHO-aAPC-hPD-L1 cells [5]: 23.4 µg/mL

B6: 1A7-selicrelumab-FV3A-IgG4 (bispecific antibody)
heavy: not shown
light: DNVLTQSPATLSVSPGERATLSCKASQSVDFDGDSYMNWYQQKPGQPPRLLIYAASNLESGIPARFSGSGSGTDFTLTISSVEPEDFATYYCQQSNEDPPTFGGGTKVEIKRTVAAPSVFIFPPSDEQLKSGTASVVCLLNNFYPREAKVQWKVDNALQSGNSQESVTEQDSKDSTYSLSSTLTLSKADYEKHKVYACEVTHQGLSSPVTKSFNRGEC
EC50 (read off the curve) [1]: ~0.3 µg/mL

B7: PD1-C40-6A7-FV3A (bispecific antibody, human IgG4 S228P, kappa)
heavy: EVQLVESGGGLVQPGGSLRLSCAASGFTFSSYSMSWVRQAPGKRLEWVAHISSGGSSTYYPDTVKGRFTISRDNSKNTLYLQMNSLRAEDTAMYYCTRQFYYGSSFWYFDVWGAGTTVTVSSASTKGPSVFPLAPCSRSTSESTAALGCLVKDYFPEPVTVSWNSGALTSGVHTFPAVLQSSGLYSLSSVVTVPSSSLGTKTYTCNVDHKPSNTKVDKRVESKYGPPCPPCPAPEFLGGPSVFLFPPKPKDTLMISRTPEVTCVVVDVSQEDPEVQFNWYVDGVEVHNAKTKPREEQFNSTYRVVSVLTVLHQDWLNGKEYKCKVSNKGLPSSIEKTISKAKGQPREPQVYTLPPSQEEGGGGSGGGGSDVVMTQSPLSLPVTLGQPASISCRSSQSLLHSNGNTYLHWYQQRPGQSPNHLIYQVSNRFSGVPDRFSGSGSGTDFTLKISRVEAEDVGVYFCSQTTHVPWTFGCGTKVEIKGGGGSGGGGSGGGGSGGGGSQVQLVQSGAEVKKPGASVKLSCKASGYTFISYYIYWVKQAPGQCLEWIGGINPRNGGTNFNEKFKSRATLTVDTSISTAYMELSRLRSEDTAVYYCTRHGNGVYWGQGTTLTVSSGGGGSGGGGSVSLTCLVKGFYPSDIAVEWESNGQPENNYKTTPPVLDSDGSFFLYSRLTVDKSRWQEGNVFSCSVMHEALHNHYTQKSLSLSPGK
light: DNVLTQSPATLSVSPGERATLSCKASQSVDFDGDSYMNWYQQKPGQPPRLLIYAASNLESGIPARFSGSGSGTDFTLTISSVEPEDFATYYCQQSNEDPPTFGGGTKVEIKRTVAAPSVFIFPPSDEQLKSGTASVVCLLNNFYPREAKVQWKVDNALQSGNSQESVTEQDSKDSTYSLSSTLTLSKADYEKHKVYACEVTHQGLSSPVTKSFNRGEC
notes: Anti-CD40 scFv (6A7) fused into each heavy chain CH3 domain at positions 358-362 (EU numbering) of the anti-PD-1 antibody 1A7-H2K3-IgG4
Kd [11]: 0.419 nM
koff [11]: 0.000255 s⁻¹
kon [11]: 608000 M⁻¹ s⁻¹
Kd [3]: 1680 nM
EC50 (read off the curve), luciferase Rlu, Jurkat-Luc-hCD40 reporter cells with CHO-K1-hPD-1 basal cells [9]: ~0.03 µg/mL
